This note sets out measurements from paper PMC10022506 (Journal of Agricultural and Food Chemistry, 2023).

The subject of one series is C=O. The series is described as follows: purified protein. The following applies: apparent, 100 mM pyruvate, 1 mM Mg2+, 50 mM CHES pH 9.0, 45 °C.
The target in the next series is T1, EcYfaU (Escherichia coli, UniProt P76469).
T1 sequence (P76469 1-267): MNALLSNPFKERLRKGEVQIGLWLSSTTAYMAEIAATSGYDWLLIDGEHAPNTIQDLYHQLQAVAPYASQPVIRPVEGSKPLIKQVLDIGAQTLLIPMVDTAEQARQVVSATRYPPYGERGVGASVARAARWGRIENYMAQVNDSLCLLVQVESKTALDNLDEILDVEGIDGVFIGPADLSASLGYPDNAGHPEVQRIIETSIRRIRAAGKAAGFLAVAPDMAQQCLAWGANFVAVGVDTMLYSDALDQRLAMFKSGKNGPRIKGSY
Put plainly: aldol condensation, HPLC. In kind it is biochemical. The note with it: co-substrate pyruvate; substrate inhibition at high concentration.

On to PaADL (Pseudomonas aeruginosa; L241A), for which, in the series on C=O, the Km – broadly, the substrate concentration at which the rate is half of its maximum – was 65 ± 5.9 mM; the kcat (as a rule, the number of substrate molecules converted per active site and unit of time at saturation) stood at 7.2 s⁻¹; the kcat/Km (in general, the second-order rate constant that governs catalysis at low substrate concentration) amounted to 110 M⁻¹ s⁻¹.

In the case of PaADL (Pseudomonas aeruginosa; V121A), in the series on C=O, the Km is given as 35 ± 4.9 mM, the kcat was 5.8 s⁻¹ and the kcat/Km amounted to 167 M⁻¹ s⁻¹.

Regarding `C=O` [formaldehyde], at EcYfaU, the “aldol condensation, HPLC” value was “we measured the activity of EcYfaU at different substrate concentrations (Figure S7)”.

With “PaADL (Pseudomonas aeruginosa; L241A/V121A)”, in the series with C=O, the Km amounted to 35 ± 4.4 mM, the kcat amounted to 6.63 s⁻¹ and the kcat/Km is 183 M⁻¹ s⁻¹.
